This passage reports percent of the initial SpoIVA^AF488 still adsorbed after 72 h of competition with unlabelled SpoIVA, with ATP, percent of the initial SpoIVA^AF488 still adsorbed after 4 h of competition with unlabelled SpoIVA, without ATP and percent of the initial SpoIVA^AF488 still adsorbed after 72 h of competition with unlabelled SpoIVA, without ATP results from article PMC4396682.

Assay [1] has as its target SpoVM (synthesized 26-amino-acid peptide), adsorbed on spherical supported lipid bilayers (Bacillus subtilis). Briefly: fluorescence microscopy of retention on bead-supported lipid bilayers after competition; 0.006 uM SpoIVA^AF488 adsorbed on SpoVM-SSLBs with 4 mM ATP in buffer A with 10 mM MgCl2; then 5 uM (800-fold excess) unlabelled SpoIVA; followed over time to 72 h.

Assay [2] has the same target. Briefly: fluorescence microscopy of retention on bead-supported lipid bilayers after competition; 0.006 uM SpoIVA^AF488 adsorbed on SpoVM-SSLBs without ATP in buffer A with 10 mM MgCl2; then 5 uM (800-fold excess) unlabelled SpoIVA; followed over time to 72 h.

SpoVM (synthesized 26-amino-acid peptide), adsorbed on spherical supported lipid bilayers (Bacillus subtilis), sequence (P37817 whole entry): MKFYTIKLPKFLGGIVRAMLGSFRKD

As for “SpoIVA^AF488 (His6-tagged cysteine-less SpoIVA variant C98S with a single engineered cysteine at the N terminus, labelled with AlexaFluor 488) (from UniProt P35149 1-492) (natural protein)”, the percent of the initial SpoIVA^AF488 still adsorbed after 72 h of competition with unlabelled SpoIVA, with ATP in assay [1] amounted to 81%. In assay [2], this substance had a percent of the initial SpoIVA^AF488 still adsorbed after 4 h of competition with unlabelled SpoIVA, without ATP of 72% and a percent of the initial SpoIVA^AF488 still adsorbed after 72 h of competition with unlabelled SpoIVA, without ATP of 26%.
